Entries after “also recorded” stand apart in the source; their conditions may differ.
Key:
[1] = Stability to degradation on incubation; assay type: physicochemical; conditions: 72-hours incubation at ambient temperature or at 37° C., neutral pH
guinea pig trachea [2] = assay: Tracheal potential difference in the guinea-pig; assay type: in vivo; conditions: 5 ug topical instillation; three hours of treatment; relative to vehicle; FIG. 15
Procedure: The aim of this study was to investigate the effect of the Kunitz serine protease inhibitor Bikunin, and the sodium channel blocker amiloride on guinea-pig tracheal potential difference 3 hours post treatment. These agents were delivered into the cephalad trachea by topical instillation. TPD was monitored 2 hours later for 60 minutes. The procedure used in this Example is described in Newton et al. in “Cilia, Mucus and Mucociliary Interactions,” Ed., Baum, G. L. et al., Marcel Dekker, New York, 1998; Newton et al., Ped. Pulm. S17, Abs. 364, 1998).
Aqueous formulations of Bikunin (1-170) (5 and 50 ug/mL (SEQ ID NO: 52)) (as described in Example 17 below) and amiloride (obtained from Sigma Chemicals, St. Louis, Mo., USA)(100 uM) were prepared, sterile filtered and endotoxin tested prior to use. […]
Two hours following agent treatment, guinea-pigs were anaesthetised for a second time with Hypnom® and Hypnovel® and immobilised in a supine position. Rectal temperature, measured with a thermistor probe was maintained at 37° C. by manual adjustment of a heat lamp. […] 20 min. following induction of i.m. anaesthesia the tracheal agar electrode was inserted into the cephalad trachea and tracheal potential difference was measured for 60 minutes. […]

guinea pig trachea [3] = assay: Tracheal mucus velocity (TMV) in the guinea-pig; assay type: in vivo; conditions: 5 ug tracheal instillation; 1.5 to 2.5 hours following administration; FIG. 16(c)
Procedure: The aim of this study was to investigate the effect of the Kunitz family serine protease inhibitor Bikunin on guinea-pig tracheal mucus velocity 1.5 hours post treatment. This agent was delivered into the cephalad trachea by topical instillation. TMV was monitored 1.5 hours later for 60 mins. The procedure used in this Example is described in Newton et al. in “Cila, Mucus and Mucociliary Interactions,” Ed., Baum, G. L. et al., Marcel Dekker, New York, 1998; Newton et al., Ped. Pulm. S17, Abs. 364, 1998). […]
TMV was monitored using a lead collimated miniature Beta particle detector probe arranged to detect the radioactivity emitted from an injected aliquot of ^32P-labelled Saccharomyces cerevisiae as it was transported on the tracheal mucociliary layer of an anaesthetized guinea pig (Newton and Hall 1998) FIG. 16(a) illustrates the arrangement of the syringe and beta probe. FIG. 16(b) illustrates the counts detected by the probe as the ^32P-labelled S. cerevisiae is transported along the tracheal mucociliary layer. […]
The aim of this comparative study was to investigate the effect of hypertonic saline (14.4%×5 min) on guinea-pig tracheal mucus velocity. […] TMV was monitored immediately and every 15 minutes for 30 minutes. […]

B1: CHO Bikunin (1-170): Glycosylated placental bikunin (1-170), SEQ ID NO: 52, expressed in Chinese hamster ovary cells (Example 17) (protein, listed as Homo sapiens)
chain: ADRERSIHDFCLVSKVVGRCRASMPRWWYNVTDGSCQLFVYGGCDGNSNNYLTKEECLKKCATVTENATGDLATSRNAADSSVPSAPRRQDSEDHSSDMFNYEEYCTANAVTGPCRASFPRWYFDVERNSCNNFIYGGCRGNKNSYRSEEACMLRCFRQQENPPLPLGSK
modifications: glycosylated, CHO-expressed
[1]
  stability to degradation: stable to degradation
Guinea pig trachea [2]
  tracheal potential difference: inhibited the potential difference
Guinea pig trachea [3]
  TMV: increased TMV; also recorded: sustained increase in TMV
